Experimental data as given in a protein production outcome set (Wang et al. 2014).

Test: label from the status in PepcDB records
With “MWNKLNKSMMFCQMMFGLSFYGVMVILTRFFLEELNYSEADTMMVVGAFSSIGPLFAIAGGFIADKFLGAYRSLTISYFGFATGYALLVLGSYTTNVPMALCGIALASYGRGLMSPSYPSLYKRTFDTQEHFENCYPVNYSVNNVGALLGQYLFPMFVLVLGFHGSFLLSCVLALLAFATLVIFRKPLLTVGAHIDQKPVSMQNWISFLITSVAMIALVFFMFSNMDIGQNIVYGIGLAAIGYFVILMLKSKKSDALKMGTILIMTALTTAFFVYYGQMMTSMTMVTINTMRGDLFDLIPIAPEASMAMNPLWCIVAGPVIAMIFSALEKRDIHFSTATKIGFAFILTAIAFGILTMAVMGVGEDAIIRPEVFLLIHFFQAFAEVIVGSLVVAFILSVAPKHIEGFSVSLFSVAMALSGIIGAVFSTSIAQEKGHVITQEFVQTVYGSYFQLLTVLAVVMVAIAFIASFIIRKMLESSKQAEEVELKEQKA” the protein production was “failed”.
In the case of “MWNLETDRVIKEIEKSNGKNIVFHAPEGLKLAVEKEIEKINDYFNSTKNLIMWGAPCYGACDLCDHELKYNNIDLIIHYGHEELPYAKPDIPTIFIHCYYIYDEIEQNNILNKIDEYLQNNPNTIITTTIQFKELLKKYNPNIILGCRANISNKPKSELEQGTEKETENSKILYIGTGRFHPLMLCYKFKKSVNLFNPTSKEFSAISEEEVNKFIKKRIGAISKLLINPPKKIGVVLSTKKGQNRINVYNKIINLLKDNNIEYMPIILNNASPDNLFYDVSAYIICACPRIVLDDYLNYNKTLLTPKEFEMYIKKDFEYVFDEILFDDFEP”, the protein production is reported as “failed”.
For “MWPLISNELYKIIKKKKFWITFIVFFALFLAYSIVQYSSEKKYYEPKQRIAMDKLEIKTEKKQLNSPGINAEQKKKIKQYIKQDEKDIKDKKKEDASKDLDWHLRLNKELIQKKYEYIKDKGKGKNEDTEDASISVMKDEYYRDNNLNPYDKTGDLAMDSFLSSKAFMQILVVFIIIAVATSDIVSSEYSPATIKMLLAKPASRAKILFSKFIAILVGNIFIIGIPQVITYLILSFMNGFPNLSQPIAVGRMYQYDSSVILSNHNVGVSPILGSSYLITEGKYLLYLALLDLLFILGCVSICFLISVLIKNSAITIGINVGLGVVMSIIGLMTLEGAIPKALSAITPFLIMTYSSTDVLLMGDMAKRANNPGITVGMGIVVFIVYTVVCMGISTFVFSKKDMLA”, the protein production was “failed”.
With “MWPSCMARFPSDGQPGYRFVPSPGSGAGEEEMRPLVSVVCACFNISKYLDEAIASIYAQGYPNLELIVVDDGSTDDTYERLAMLRERHGFQLYRQANRGVSDALNHGLRHARGEFVMTPDLDDILLPGALDTRVDYLLAHPEVGCVGGFNICIDSAGNEVARDGFSEGCVERWGFDAALAETLVVMPLTALYRMEAMKRADFFDPSIRVQDFQITLRIAAQGYEIHRLPAYMGRYRRHGSGLSGRYKLNYEADMQAIEPYRAHPNYRRARQLILNKALKKAVVQDGRYAWQLFRSVPLRAWDRVTLKRFWRFLRYLPVLGLKGGTGVEGR” the protein production was “failed”.
For “MWSSREIEDLGLTFAIAIDKGKETNTEKELKEEGGSYPKKDNITLTYQFVNEKAAGAGTSGGGGSGQGAQKAYINISETGDSLQQIGSEVALRRDREVFSPHLKVVVMSEDVLHTFPIDEMLDQFFRDNEIRLSCLVLSAKGEARDALQLKENGEIPAFRLIGLGENEHKVSRILPPMTLAKLIGKLHSGSSFLLQNVVAANGAVKYSGAAVINGKSKKMIGTLNEYETEGITWIRGEGKGGVVKSHDKKSQQTLAYDINKIKSRIQPIVKGKDISFHVDIESEGDLVENWNTKEALDTQFIDRLETTIENEVKKIVGQVLKKIQHDYKADVAGFDESFRLTYPHLWKRVKNNWDDTFSKADITYSVNVTITHFGTVKTQLEHHHHHH”, the protein production was “not failed”.
With “MWSWDVECDTCAICRVQVMDACLRCQAENKQEDCVVVWGECNHSFHNCCMSLWVKQNNRCPLCQQDWVVQRIGK” the protein production was “not failed”.
In the case of “MWTTRLVRSGLAALCAAVLVSSGCARFNDAQSQPFTTEPELRPQPSSTPPPPPPLPPVPFPKECPAPGVMQGCLESTSGLIMGIDSKTALVAERITGAVEEISISAEPKVKTVIPVDPAGDGGLMDIVLSPTYSQDRLMYAYISTPTDNRVVRVADGDIPKDILTGIPKGAAGNTGALIFTSPTTLVVMTGDAGDPALAADPQSLAGKVLRIEQPTTIDQTPPTTALSGIGSGGGLCIDPVDGSLYVADRTPTADRLQRITKNSEVSTVWTWPDKPGVAGCAAMDGTVLVNLINTKLTVAVRLAPSTGAVTGEPDVVRKDTHAHAWALRMSPDGNVWGATVNKTAGDAEKLDDVVFPLFPQGGGFPRNNDDKT”, the protein production is reported as “failed”.
In the case of “MWTVLIINLLIAIVLTYFGLKERNENFSWFTASGAFIVFGLILLISTIPVFNDFNESSLLMFIGGILSILGIITLIIGLVTRAVKIVSLRDVAIAMEIAAVCVIYLIHNLDLSFINLFVPELSVIIGFLLFVFSRKKN”, the protein production is reported as “failed”.
For “MWWPGTVIGVGAGFAVASIPGALLGALLGQAIDRRLRLQGWEDMRERLGGRPALRDDELLFVMLGRLAKCDGRVAEQHIQQARQEMVRLDLAEAARLRAINAFNRGKAGKDRLGGHLRRISQQPHAAEGTLRACWRMVWADGKMGNKERELLLDWGQKLGMSRRQVQAMSLEYEPRKATGAESVPMTYAAALRLLAVDADTDTDKVKQAYRRLVSRHHPDKLAGTGASEAQVREATARTRELHQAYAMIRKRRGL”, the protein production was “failed”.
For “MYADYPYYADHYGGDIPEREYPSAERRAEAYIRKLTYVRGNIFAVENTAVKDAVCAVADVYYSCKKKQEAGTVKSESNDGYSVSYAVEQADGQTMEELIRKKAYEAASTYLLPTGWLSRKVGCCHADECDDYNL”, the protein production was “failed”.
In the case of “MYALISLEEDPSLLRYGYLSQDNVGDVRREVSKLCGELRPHALALVTSFGIPDSFLSPIAFNWVEANTWSSV”, the protein production is reported as “failed”.
In the case of “MYAVPILNVYDFEVKKDKETSYKSATEDYVNKTMGVEQGVLGLFAATDERDKTTSYIVEIYNDYLAFSNHTKNQASKDFKAVIPQIAEGNLNSAEIDVQIAKDKKIEQNDNTFAVYTVIDVKPENDKEFAEIIKNIVETTFNEEGTLLVYLGTDRRNFNKWCLFEVYKDIDSYLNHRSAKYFKDYITQTKDMIAGKKRAELQVLKIENKGGLDYKKLY”, the protein production is reported as “not failed”.
In the case of “MYDSRGVALHSELIHRWNHAFSILSIVAFPKKRLLFAGSQDSKILVFDLPTYNLIHTIRLGESQEETHTRSSVLCLTGSEDENFLFSGGADSLVRIWSIGEKTIRDDFLPVTEIATVYSVTDIGDIFSLAYLDSLETIVFGCQNASLLYVENLIQKIEKKSSDGVENINKLPHRRYDKFFDSLGPTGYSSNSLSQTSLTSLQENCGAAIIEVPSENIIKYAHYGFIYSINKLCPRFNQLLEKSSRTSGAEHIISSAGDGISKLWEFSKDKGQNTVKISLINDKIDNEDSVISQTIEFPFLYCGLTDGIIKIWDLNTQQIISTLKTKHESDVISISVYMDHVFAIDESGITHFYQNQVNHWNPQQGKILSSEIFSKSNAGSVSLLTGGSDGSLTLWDITSLLSAVPLSSNSPINASSTLQTTNLWAAYQSASLNNEEMLNTLRELISFQTVSQSKDTTNTLSLRRCAIYLQQLFLKFGATNSQLFPLPDGGNPVVFAYFQGNGKVSQVKGAKKKRILWYGHYDVISSGNTFNWNTDPFTLTCENGYLKGRGVSDNKGPLVSAIHSVAYLFQQGELVNDVVFLVEGSEEIGSASLKQVCEKYHDIIGKDIDWILLSNSTWVDQEHPCLNYGLRGVINAQIKVWSDKPDGHSGLNGGVYDEPMVNLVKIVSKLQNEQNEIMIPNFYSPLKDLTEEEYQRFQKITELANIDENTTVQDLITNWTKPSLSMTTVKFSGPGNITVIPKSVTMGISIRLVPEQSVEQVKRDLKAYLEESFKQLKSQNHLEIKVLNEAEGWLGDPTNHAYQILKDEITTAWDVEPLLVREGGSISCLRMLERIFDAPAVQIPCGQSTDNGHLANENLRIKNWSNLTEILSKVFNRL”, the protein production is reported as “failed”.
With “MYDWFSEMRKKDPVYYDGNIWQVFSYRYTKEVLNNFSKFSSDLTGYHERLEDLRNGKIRFDIPTRYTMLTSDPPLHDELRSMSADIFSPQKLQTLETFIRETTRSLLDSIDPREDDIVKKLAVPLPIIVISKILGLPIEDKEKFKEWSDLVAFRLGKPGEIFELGKKYLELIGYVKDHLNSGTEVVSRVVNSNLSDIEKLGYIILLLIAGNETTTNLISNSVIDFTRFNLWQRIREENLYLKAIEEALRYSPPVMRTVRKTKERVKLGDQTIEEGEYVRVWIASANRDEEVFHDGEKFIPDRNPNPHLSFGSGIHLCLGAPLARLEARIAIEEFSKRFRHIEILDTEKVPNEVLNGYKRLVVRLKSNE” the protein production was “not failed”.
